According to the supplement of paper PMC7877785:
± gives the uncertainty stated by the source.

Test: self-splicing fitness, log relative to wild type (ln ratio); higher = more splicing; Tetrahymena group I intron in knt gene, E. coli kanamycin selection, DiMSum; sequences stand for … in CUCUCU…GGAGGGAAAAGUUAUCAGGCAUGCACCUGGUAGCUAGUCUUUAAACCAAUAGAUUGCAUCGGUUUAAAAGGCAAGACCGUCAAAUUGCGGGAAAGGGGUCAACAGCCGUUCAGUACCAAGUCUCAGGGGAAACUUUGAGAUGGCCUUGCAAAGGGUAUGGUAAUAAGCUGACGGACAUGGUCCUAACCACGCAGCCAAGUCCUAAGUCAACAGAUCUUCUGUUGAUAUGGAUGCAGUUCACAGACUAAAUGUCGGUCGGGGAAGAUGUAUUCUUCUCAUAAGAUAUAGUCGGACCUCUCCUUAAUGGGAGCUAGCGGAUGAAGUGAUGCAACACUGGAGCCGCUGGGAACUAAUUUGUAUGCGAAAGUAUAUUGAUUAGUUUUGGAGUACUCGUGGUCG
Method in brief: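 DiMSum derived fitness as the error-weighted combination of fold changes across replicates, kanamycin versus no kanamycin, normalised to wild type. E. coli BL21(DE3) held the library, which randomised all eight P1ex-region intron nucleotides within the knt kanamycin-resistance gene on pET-22b(+). Six replicate transformations grew overnight at 37°C or 30°C on LB agar with or without 25 μg/mL kanamycin, also containing 100 μg/mL carbenicillin, 50 μM IPTG and 0.2% rhamnose, and pooled colonies were amplicon-sequenced on an Illumina HiSeq 2500.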

Row | Sequence | self-splicing fitness (ln) (30 °C) | self-splicing fitness (ln) (37 °C)
1 | AGCUAGCAAUAUUACGAUGA | -2.51 ± 0.21 | -2.54 ± 0.15
2 | AGCUAGCAAUAUUACGCCGU | -1.23 ± 0.13 | -1.2 ± 0.16
3 | AGCUAGCAAUAUUACGCUCU | -2.24 ± 0.18 | -1.57 ± 0.24
4 | AGCUAGCAAUAUUACGGCGA | -0.581 ± 0.081 | 0.0269 ± 0.12
5 | AGCUAGCAAUAUUACGGGAC | -3.37 ± 0.23 | -1.84 ± 0.24
6 | AGCUAGCAAUAUUACGGUUU | -2.66 ± 0.14 | -1.96 ± 0.14
7 | AGCUAGCAAUAUUACGUAUG | -2.52 ± 0.15 | -0.829 ± 0.12
8 | AGCUAGCAAUAUUACGUAUU | -3.8 ± 0.23 | -1.35 ± 0.15
9 | AGCUAGCAAUAUUACGUCCC | -1.33 ± 0.21 | 0.355 ± 0.22
10 | AGCUAGCAAUAUUACGUGUA | -3.86 ± 0.18 | -1.48 ± 0.12
11 | AGCUAGCAAUAUUACGUUCC | -0.609 ± 0.11 | -1.76 ± 0.17
12 | AGCUAGCAAUAUUACGUUGC | -3.91 ± 0.25 | -3.13 ± 0.28
13 | AGGAAGCAAUAUUACGAAUG | -4.53 ± 0.46 | -2.8 ± 0.28
14 | AGGAAGCAAUAUUACGACCA | -0.504 ± 0.06 | -0.317 ± 0.096
15 | AGGAAGCAAUAUUACGACGA | -0.678 ± 0.092 | -0.0243 ± 0.13
16 | AGGAAGCAAUAUUACGAGCG | -1.96 ± 0.24 | -1.08 ± 0.22
17 | AGGAAGCAAUAUUACGAUUU | -0.378 ± 0.078 | 0.0421 ± 0.11
18 | AGGAAGCAAUAUUACGCAUA | -2.39 ± 0.18 | -1.15 ± 0.16
19 | AGGAAGCAAUAUUACGCGCA | -0.555 ± 0.13 | 0.268 ± 0.16
20 | AGGAAGCAAUAUUACGCUAC | -3.48 ± 0.41 | -2.99 ± 0.47
21 | AGGAAGCAAUAUUACGCUCG | -0.643 ± 0.16 | -0.865 ± 0.21
22 | AGGAAGCAAUAUUACGCUGU | -2.29 ± 0.29 | –
23 | AGGAAGCAAUAUUACGGACA | -0.516 ± 0.12 | -0.384 ± 0.15
24 | AGGAAGCAAUAUUACGGACC | -0.483 ± 0.27 | 0.238 ± 0.27
25 | AGGAAGCAAUAUUACGGCAA | -1.52 ± 0.096 | -0.574 ± 0.12

Row | Sequence | self-splicing fitness (ln) (30 °C) | self-splicing fitness (ln) (37 °C)
26 | AGGAAGCAAUAUUACGGCAU | -1.28 ± 0.13 | -0.506 ± 0.15
27 | AGGAAGCAAUAUUACGGGAG | -2.22 ± 0.19 | -2.95 ± 0.37
28 | AGGAAGCAAUAUUACGGGCC | -3.5 ± 0.42 | -0.18 ± 0.2
29 | AGGAAGCAAUAUUACGGGGC | -3.49 ± 0.26 | -2.49 ± 0.24
30 | AGGAAGCAAUAUUACGGGUG | -2.14 ± 0.091 | -1.98 ± 0.11
31 | AGGAAGCAAUAUUACGGUAG | -3.37 ± 0.36 | -1.6 ± 0.31
32 | AGGAAGCAAUAUUACGUAUC | -3.45 ± 0.22 | -2.88 ± 0.15
33 | AGGAAGCAAUAUUACGUCAC | -3.41 ± 0.2 | -3.65 ± 0.3
34 | AGGAAGCAAUAUUACGUCAG | -2.97 ± 0.25 | -2.41 ± 0.33
35 | AGGAAGCAAUAUUACGUCAU | -3.32 ± 0.16 | -0.295 ± 0.12
36 | AGGAAGCAAUAUUACGUCCA | -0.764 ± 0.14 | -0.0963 ± 0.22
37 | AGGAAGCAAUAUUACGUUGC | -3.23 ± 0.37 | -1.29 ± 0.41
38 | AGGCAGCAAUAUUACGAACA | -1.45 ± 0.11 | -0.167 ± 0.14
39 | AGGCAGCAAUAUUACGAAUC | -2.29 ± 0.29 | -2.07 ± 0.24
40 | AGGCAGCAAUAUUACGAGCA | -1.96 ± 0.12 | -0.225 ± 0.12
41 | AGGCAGCAAUAUUACGAUAC | -2.06 ± 0.27 | -1.42 ± 0.26
42 | AGGCAGCAAUAUUACGAUCC | -0.222 ± 0.051 | -0.211 ± 0.061
43 | AGGCAGCAAUAUUACGCACA | -0.332 ± 0.092 | 0.275 ± 0.11
44 | AGGCAGCAAUAUUACGCCCG | -1.26 ± 0.12 | -0.431 ± 0.2
45 | AGGCAGCAAUAUUACGCGGA | -2.08 ± 0.14 | -0.664 ± 0.1
46 | AGGCAGCAAUAUUACGCUAC | -2.44 ± 0.23 | –
47 | AGGCAGCAAUAUUACGCUGC | – | -2.5 ± 0.38
48 | AGGCAGCAAUAUUACGCUUC | – | -1.31 ± 0.28
49 | AGGCAGCAAUAUUACGCUUU | -3.17 ± 0.35 | -1.41 ± 0.18
50 | AGGCAGCAAUAUUACGGAAA | -2.91 ± 0.48 | -2.14 ± 0.24

Row | Sequence | self-splicing fitness (ln) (30 °C) | self-splicing fitness (ln) (37 °C)
51 | AGGCAGCAAUAUUACGGACG | -0.899 ± 0.067 | -0.218 ± 0.095
52 | AGGCAGCAAUAUUACGGCCG | -1.12 ± 0.13 | -0.985 ± 0.17
53 | AGGCAGCAAUAUUACGGGAG | -4.08 ± 0.22 | -1.53 ± 0.12
54 | AGGCAGCAAUAUUACGGUGC | -3.54 ± 0.16 | -2.89 ± 0.2
55 | AGGCAGCAAUAUUACGUACA | -0.585 ± 0.071 | -0.742 ± 0.093
56 | AGGCAGCAAUAUUACGUACC | -0.0574 ± 0.12 | 0.0331 ± 0.15
57 | AGGCAGCAAUAUUACGUCAA | -1.25 ± 0.098 | -0.465 ± 0.095
58 | AGGCAGCAAUAUUACGUCCG | -1.16 ± 0.12 | -0.519 ± 0.13
59 | AGGCAGCAAUAUUACGUGAC | -3.86 ± 0.21 | -1.84 ± 0.14
60 | AGGCAGCAAUAUUACGUGUC | -3.18 ± 0.15 | -2.58 ± 0.19
61 | AGGCAGCAAUAUUACGUUGU | -2.88 ± 0.15 | -2.52 ± 0.21
62 | AGGCAGCAAUAUUACGUUUG | -3.43 ± 0.18 | -1.66 ± 0.14
63 | AGGGAGCAAUAUUACGACGC | – | -1.54 ± 0.45
64 | AGGGAGCAAUAUUACGAGGA | -3.08 ± 0.33 | –
65 | AGGGAGCAAUAUUACGAGUG | -3.39 ± 0.36 | -2.37 ± 0.3
66 | AGGGAGCAAUAUUACGAUAG | -2.56 ± 0.23 | -2.66 ± 0.3
67 | AGGGAGCAAUAUUACGAUCU | -2.71 ± 0.23 | -1.77 ± 0.17
68 | AGGGAGCAAUAUUACGCCCA | – | -0.897 ± 0.34
69 | AGGGAGCAAUAUUACGCUAU | -3.63 ± 0.43 | -1.85 ± 0.49
70 | AGGGAGCAAUAUUACGGAUG | -4 ± 0.33 | -2.6 ± 0.31
71 | AGGGAGCAAUAUUACGGGAU | -3.19 ± 0.46 | -1.48 ± 0.28
72 | AGGGAGCAAUAUUACGGGGC | – | -0.893 ± 0.36
73 | AGGGAGCAAUAUUACGGGUU | -3.84 ± 0.25 | -3.17 ± 0.35
74 | AGGGAGCAAUAUUACGGUAG | -4 ± 0.33 | –
75 | AGGGAGCAAUAUUACGGUUU | -3.83 ± 0.24 | -2.39 ± 0.26

Row | Sequence | self-splicing fitness (ln) (30 °C) | self-splicing fitness (ln) (37 °C)
76 | AGGGAGCAAUAUUACGUAGA | -3.05 ± 0.19 | -2.22 ± 0.48
77 | AGGGAGCAAUAUUACGUGCA | -4.52 ± 0.34 | -2.5 ± 0.24
78 | AGGGAGCAAUAUUACGUGCC | -2.79 ± 0.46 | –
79 | AGGGAGCAAUAUUACGUGGA | -1.45 ± 0.14 | -2.81 ± 0.26
80 | AGGUAGCAAUAUUACGAACA | -0.682 ± 0.019 | -0.342 ± 0.036
81 | AGGUAGCAAUAUUACGAACG | -0.798 ± 0.016 | -0.207 ± 0.035
82 | AGGUAGCAAUAUUACGACGC | -0.0643 ± 0.017 | 0.0178 ± 0.035
83 | AGGUAGCAAUAUUACGACGG | -2.04 ± 0.02 | -1.31 ± 0.037
84 | AGGUAGCAAUAUUACGAGGG | -3.972 ± 0.031 | -3.2 ± 0.042
85 | AGGUAGCAAUAUUACGAUCA | -0.205 ± 0.014 | -0.121 ± 0.033
86 | AGGUAGCAAUAUUACGCACU | -1.32 ± 0.017 | -0.862 ± 0.035
87 | AGGUAGCAAUAUUACGCAGG | -3.433 ± 0.022 | -1.88 ± 0.035
88 | AGGUAGCAAUAUUACGCCAU | -1.89 ± 0.021 | -0.939 ± 0.036
89 | AGGUAGCAAUAUUACGGAAG | -3.612 ± 0.031 | -2.5 ± 0.04
90 | AGGUAGCAAUAUUACGGCUA | -1.66 ± 0.022 | -1.14 ± 0.037
91 | AGGUAGCAAUAUUACGGUCU | -0.498 ± 0.013 | -0.107 ± 0.033
92 | AGGUAGCAAUAUUACGUAUA | -2.6 ± 0.023 | -1.45 ± 0.036
93 | AGGUAGCAAUAUUACGUCAA | -2.28 ± 0.023 | -1.6 ± 0.036
94 | AGGUAGCAAUAUUACGUUUC | -3.528 ± 0.026 | -2.18 ± 0.039
95 | AGUAAGCAAUAUUACGAACU | -2.43 ± 0.19 | -0.813 ± 0.15
96 | AGUAAGCAAUAUUACGAAGC | -3.12 ± 0.27 | -3.5 ± 0.37
97 | AGUAAGCAAUAUUACGAAUG | -1.15 ± 0.28 | –
98 | AGUAAGCAAUAUUACGAGUU | -2.53 ± 0.097 | -0.877 ± 0.1
